A short description of this data set: yeast display, Sf9 membrane polyspecificity reagent, FACS + sequencing; frameworks hold sequencing errors. The method in brief: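 Synthetic nanobody libraries on Saccharomyces cerevisiae BJ5465 were galactose-induced for 36–48 hours, stained 1 hour at 4 °C with 10% biotinylated, detergent-solubilized Sf9 membrane reagent and enriched on streptavidin microbeads. FACS then separated cells into low and high (top ~1%) gates by anti-HA (expression) and streptavidin (reagent binding) fluorescence. Genes were colony-PCR amplified, MiSeq 2 × 250 sequenced and CDR-length filtered. A clone's polyreactivity label is that of its gate of origin.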
With “QVQLVESGGGLVQAGGSLRLSCAASGRIFFPYDMGWYRQAPGKERELVAAITNSGGRTYYADSVKGRFTISRDNAKNTVYLQMNSLKPEDTAVYYCNADAYEFRWVKHYDYWGQGTQVTVSS”, the “polyreactivity (PSR sort gate)” value is on record as “low polyreactivity”.

Regarding “QVQLVESGGGLVQAGGSLRLSCAASGRIFFRYAMGWYRQAPGKERELVASIRFRGGSTYYADSVKGRFTISRDNAKNTVYLQLNSLKPVDTAVYYCATPGSFTGTQRTGDYWGQGTQVTVSS”, the “polyreactivity (PSR sort gate)” value is given as “high polyreactivity”.

For the sequence “QVQLVESGGGLVQAGGSLRLSCAASGRIFFSYAMGWYRQAPGKERELVAAINGRGGSTYYADSVKGRFTISRDNAKNTVYLQMNSLKPEDTAVYYCAATAFSKGSSWKPYYYWGQGTQVTVSS”, the “polyreactivity (PSR sort gate)” value is recorded as “low polyreactivity”.

With “QVQLVESGGGLVQAGGSLRLSCAASGRIFFVNAMGWYRQAPGKERELVAAISWSGGNTNYADSVKGRFTISRDNAKNTVYLQMNSLKPEDTAVYYCAADNSVGEYQRVDYDYWGQGTQVSVSS”, the “polyreactivity (PSR sort gate)” value is reported as “low polyreactivity”.

“QVQLVESGGGLVQAGGSLRLSCAASGRIFFVNTMGWYRQAPVKERELVATISCSGGSTYYADSVKGRFTISRDNAKNTVYLQMNTLKPEDTAVYYCNRSLTGYDELGYPVPYTYDYWGQGTQVTVSS”: the “polyreactivity (PSR sort gate)” value is reported as “low polyreactivity”.

On to “QVQLVESGGGLVQAGGSLRLSCAASGRIFFWYAMGWYRQAPGTERELVAGITSGGSTNYADSVKGRFTISRDNAKNTVYLQMNSLKPEDTAVYYCAKRSYRTHTYDYWGQGTQVTVSS”, for which the “polyreactivity (PSR sort gate)” value is “low polyreactivity”.

For the sequence “QVQLVESGGGLVQAGGSLRLSCAASGRIFFYNAMGWYRQAPGKERELVAGISRSGTSTYYADSVKGRFTISRDNAKNTVYLQMNSLKPEDTAVYYCAADAWSVILWREMDYWGQGTQVTVSS”, the “polyreactivity (PSR sort gate)” value is “low polyreactivity”.

For “QVQLVESGGGLVQAGGSLRLSCAASGRIFFYYAMGWYRQAPGKERELVATISYSGGGTYYADSVKGRFTISRDNAKNTVYLQMNSLKPEDTAVYYCNARWGTPYYIQDFDYWGQGTQVTVSS”, the “polyreactivity (PSR sort gate)” value is on record as “low polyreactivity”.

In the case of “QVQLVESGGGLVQAGGSLRLSCAASGRIFFYYVMGWYRQAPGKERELVAAITRSGGSTYYADSVKGRFTISRDNAKNTVYLQMNSLKPEDTAVYYCSVGDGFEYDWGQGTQVTVSS”, the “polyreactivity (PSR sort gate)” value is on record as “low polyreactivity”.

Consider “QVQLVESGGGLVQAGGSLRLSCAASGRIFGAYAMGWYRQAPGKERELVAAINRGGSTNYADSVKGRFTISRDNAKNTVYLQMNSLKPEDTAVYYCAKRSSGRHFTYDYWGQGTQVTVSS”, for which the “polyreactivity (PSR sort gate)” value is “low polyreactivity”.

For the sequence “QVQLVESGGGLVQAGGSLRLSCAASGRIFGAYAMGWYRQAPGKERELVAAITSGGSTYYADSVKGRFTISRDNAKNTVYLQMNSLKPEDTAVYYCNALRRSQPWKYDYWGQGTQVTVSS”, the “polyreactivity (PSR sort gate)” value is recorded as “low polyreactivity”.

In the case of “QVQLVESGGGLVQAGGSLRLSCAASGRIFGAYAMGWYRQAPGKERELVAAITSRGGNTYYADSVKGRFTISRDNAKNTVFLQMNSLKPEDTAVYYCAARHDTRRQYYVGQSAFDYWGQGTQVTVSS”, the “polyreactivity (PSR sort gate)” value is given as “low polyreactivity”.

For “QVQLVESGGGLVQAGGSLRLSCAASGRIFGAYAMGWYRQARGKERELVAAIDIRGGNTYYADSVKGRFTISRDNAKNTVYLQMNSLKPEDTAVYYCPADTWYDAYNYWGQGTQVTVSS”, the “polyreactivity (PSR sort gate)” value was “low polyreactivity”.

As to “QVQLVESGGGLVQAGGSLRLSCAASGRIFGDNAMGWYRQAPGKERELVAAITNRGGTTYYADSVKGRFTISRDNAKNTVYLQMNSLRPEDTAVYYCNKTPDRHRRYFGYGYWGQGTQVTVSS”, the “polyreactivity (PSR sort gate)” value is reported as “low polyreactivity”.

As to “QVQLVESGGGLVQAGGSLRLSCAASGRIFGDNAMGWYRQAPGKERELVAGIRWRADRTYYADSVKGRFTISRDNAKNTVYLQMNSLKPEDTAVYYCNADVVRYRHWHRGDYWGQGTQVTVSS”, the “polyreactivity (PSR sort gate)” value is “low polyreactivity”.

Take “QVQLVESGGGLVQAGGSLRLSCAASGRIFGDYAMGWYRQAPGKERELVARITWSGTGTYYADSVKGRFTISRDNAKNTVYLQMNSLKPEDTAVYYCNADWQVQWYYYWGHGTQVTVSS”: the “polyreactivity (PSR sort gate)” value is “low polyreactivity”.

Turning to “QVQLVESGGGLVQAGGSLRLSCAASGRIFGENAMGGYRQAPGKEREFVAVISISDASTYYADSVKGRFTISRDNAKNTVYLQMNSLKPEDTAVYYCAADLTDFLYVASDYWGQGTQVTVSS”, the “polyreactivity (PSR sort gate)” value is on record as “low polyreactivity”.

Regarding “QVQLVESGGGLVQAGGSLRLSCAASGRIFGENAMGWYRQAPGKERELVAAINSGGSTSYADSVKGRFTISRDNAKNTVYLQMNSLKPEDTAVYYCAADEIQGFYTHSFEYWGQGTQVTVSS”, the “polyreactivity (PSR sort gate)” value is reported as “low polyreactivity”.

“QVQLVESGGGLVQAGGSLRLSCAASGRIFGFNALGWYRQAPGKEREFVAAMSGNGGSTYYADSVKGRFTISRDTAKNTVYLPMLSLNPEDTADYYSAASVHATYFSGARHWVKLYDWRQGTQVTVSS”: the “polyreactivity (PSR sort gate)” value was “high polyreactivity”.

Turning to “QVQLVESGGGLVQAGGSLRLSCAASGRIFGFNAMGWYRQAPGKERELVAGITDSSGRTNYADSVKGRFTISRDNAKNTVYLQMNSLKPEDTAVYYCAKASAYGLANDYDYWGQGTQVTVSS”, the “polyreactivity (PSR sort gate)” value was “low polyreactivity”.

Regarding “QVQLVESGGGLVQAGGSLRLSCAASGRIFGFNTMGWYRQAPGKERELVAAISRNGGSTYYADSVKGRFTISRDNAKNTVYLEMNSLKPEDTAVYYCAKRWYPYSYDYWGQGTQVTVSS”, the “polyreactivity (PSR sort gate)” value is “high polyreactivity”.

In the case of “QVQLVESGGGLVQAGGSLRLSCAASGRIFGFYAMGWYRQAPGKERELVAAITNGGSTYYADSVKGRFTISRDNAKNTVDLQMNSLKPEDTAVYYCNKGRQAHLHITMDYWGQGTQVTLSS”, the “polyreactivity (PSR sort gate)” value is listed as “low polyreactivity”.

For “QVQLVESGGGLVQAGGSLRLSCAASGRIFGFYTMGWYRQAPGKERELVAGISRGGSTYYADSVKGRFTISRDNAKNTGYVQMNSLNPEDTAVYDCAADLGWGYEYWGQGTQVTVSS”, the “polyreactivity (PSR sort gate)” value is listed as “low polyreactivity”.

In the case of “QVQLVESGGGLVQAGGSLRLSCAASGRIFGGNAMGWYRQAPGKERELVAAISQRGGSTSYADSVKGRFTISRDNAKNTVYLQMNSLKPEDTAVYYCAATWGYLRGSTKFYYWGQGTQVTVSS”, the “polyreactivity (PSR sort gate)” value was “high polyreactivity”.

Regarding “QVQLVESGGGLVQAGGSLRLSCAASGRIFGGNAMGWYRQAPGKERELVAAITWGGSTNYADSVKGRFTISRDNAKNTVYLQMNRLKPEDTAVYYCNADPVRDTYWHPETQQWYGYWGQGTQVTVSS”, the “polyreactivity (PSR sort gate)” value is listed as “low polyreactivity”.

In the case of “QVQLVESGGGLVQAGGSLRLSCAASGRIFGGYAMGWYRQAPGKERELVAVITDGGSTNYADSVKGRFTISRDNAKNTVYLQMNSLKPEDTAVYYCAADSDGDEPPYDYWGQGTQVTVSS”, the “polyreactivity (PSR sort gate)” value was “low polyreactivity”.

Take “QVQLVESGGGLVQAGGSLRLSCAASGRIFGGYARGWYRQAPGKERELVAVINGGTSTKYADSVKGRFTISRDNAKNTVYLQMNSLKPEDTAVYYCAKTRHDSLQNRNRYDYWGQGTQVTVSS”: the “polyreactivity (PSR sort gate)” value is given as “low polyreactivity”.

For “QVQLVESGGGLVQAGGSLRLSCAASGRIFGGYTMGWSRPAPGKERELVAAITGSGGRTYYADSVKGRFTISRDNAKNTVYLQMNSLQPEDTAVYYCNTVYRYLYSWGQGTQVTVSS”, the “polyreactivity (PSR sort gate)” value is recorded as “high polyreactivity”.

Consider “QVQLVESGGGLVQAGGSLRLSCAASGRIFGGYTMGWYRQAPGKERELVASINSGGSTAYADSVKGRFTISRDNAKNTVYLQMNSLKPEDTAVYYCAKRYAQTYSVSRYYYWGQGTQVTVSS”, for which the “polyreactivity (PSR sort gate)” value is given as “high polyreactivity”.

For “QVQLVESGGGLVQAGGSLRLSCAASGRIFGHNAMGWYRQAPGKERELVARISSTGSTKYADSVKGRFTISRDNAKNTVYLQMNSLKPEDTAVYYCAAYIIRWKGSSYYWGQGTQVTVSS”, the “polyreactivity (PSR sort gate)” value is recorded as “high polyreactivity”.

Consider “QVQLVESGGGLVQAGGSLRLSCAASGRIFGHNAMGWYRQAPGKERELVATISSGVRTNYADSVKGRFTISRDNAKNTVYLQMNSLKPEDTAVYYCATKTYQFGYSSYYYWGQGTQVTVSS”, for which the “polyreactivity (PSR sort gate)” value is reported as “high polyreactivity”.

Take “QVQLVESGGGLVQAGGSLRLSCAASGRIFGHNSMGWSRQPPWKEMELVATISSGVRTNYADSVKGRFTISRDNAKNTVYLQMNSLKPEDTAVYYCATKTYQFGYSSYYYWGQGTQVTVSS”: the “polyreactivity (PSR sort gate)” value was “high polyreactivity”.

Consider “QVQLVESGGGLVQAGGSLRLSCAASGRIFGHYAIGWYRKAPGKERELVAAISTSGGSTYYADSVKGRFTISRDNAKNTVYLQMNSLKPEDTAVYYCAASVVYYPYDYWGQGTQVTVSS”, for which the “polyreactivity (PSR sort gate)” value is “high polyreactivity”.

“QVQLVESGGGLVQAGGSLRLSCAASGRIFGINALGWYRQAPGKERELVAAISSADSTYADSVKGRFTISRDNAKNTVFLQMYSLNPEDTAVYNCRNDYWGQGTQVTVSS”: the “polyreactivity (PSR sort gate)” value is listed as “low polyreactivity”.

With “QVQLVESGGGLVQAGGSLRLSCAASGRIFGINAMGWYRQAPGKERELVAAINRSGDTTNYADSVKGRFTISRDNAKNTVYLQMNSLKPEDTAVYYCAADGYRQVYYRYYYWGQGTQVTVSS”, the “polyreactivity (PSR sort gate)” value is reported as “high polyreactivity”.

As to “QVQLVESGGGLVQAGGSLRLSCAASGRIFGINAMGWYRQAPGKERELVAAITWSGDGTYDADSVKGRFTISRDNAKNTVYLQMNSLKPEDTAVYYCAKQLPEISQMDYWGQGTQVTVSS”, the “polyreactivity (PSR sort gate)” value is reported as “low polyreactivity”.

Regarding “QVQLVESGGGLVQAGGSLRLSCAASGRIFGKYAMGWYRQAPGKERELVAAISRSGASTYYADSVKGRFTISRDNAKNTVYLQMNSLKPEDTAVYYCAAVPPYNYRVRVYYWGQGTQVTVSS”, the “polyreactivity (PSR sort gate)” value is given as “high polyreactivity”.

With “QVQLVESGGGLVQAGGSLRLSCAASGRIFGKYAMGWYRQAPGKERELVAAISSSGGSTYYADSVKGRFTISRDNAKNTVYLQMNSLKPEDTAVYYCAADAAVSRVYPYDYWGQGTQVTVSS”, the “polyreactivity (PSR sort gate)” value was “high polyreactivity”.

As for “QVQLVESGGGLVQAGGSLRLSCAASGRIFGKYAMGWYRQAPGKERELVAAISSSGRTNYADSVKGRFTISRDNAKNTVYLQMNSLKPEDTAVYYCAVRVLIHTNTRRLDYWGQGTQVTVSS”, the “polyreactivity (PSR sort gate)” value is “high polyreactivity”.

Turning to “QVQLVESGGGLVQAGGSLRLSCAASGRIFGKYAMGWYRQAPGKERELVAAISVRGGRTFYADSVKGRFTISRDNAKNTVYLQMNSLKPEVTAVYYCAARGADKGSYADVDYWGQGTQVTVSS”, the “polyreactivity (PSR sort gate)” value is given as “low polyreactivity”.

“QVQLVESGGGLVQAGGSLRLSCAASGRIFGLNAMGWYRQAPGKERELVAAITGSVGSTYYADSVKGRFTISRDNAKNTVYLQMNSLKPEDTAVYYCNAEYDSRRSSYYRHFNYWGQGTQVTVSS”: the “polyreactivity (PSR sort gate)” value is reported as “low polyreactivity”.

For the origin of these results see the nanobody polyreactivity screen of Harvey et al. (2022).
